Laboratory results: the supplement of paper PMC9112550, “Optimization of the antimicrobial peptide Bac7 by deep mutational scanning” (BMC Biology, 2022)

The sequences below were run on Escherichia coli TOP10 (assay: shrunken log2 fold change of peptide-encoding DNA abundance (4.5 h post-induction vs induction); higher = less antimicrobial activity (less host growth inhibition)). Conditions: time post-induction: 4.5 h; library: site-saturation at positions 5, 18, 19, 20.
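Also: peptides expressed intracellularly from a pBAD plasmid library in pooled LB shake-flask culture, induced with 0.3% L-arabinose, DNA abundance read by NGS, three biological replicates, DESeq2 with apeglm shrinkage.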

Sequence	shrunken log2 fold change
RRIRCRPPRLPRPRPRPHFDPRP	0.0458
RRIRCRPPRLPRPRPRPHFRPRP	-0.308
RRIRCRPPRLPRPRPRPHGQPRP	0.0389
RRIRCRPPRLPRPRPRPHGTPRP	-0.0488
RRIRCRPPRLPRPRPRPHHFPRP	-0.219
RRIRCRPPRLPRPRPRPHHHPRP	-0.815
RRIRCRPPRLPRPRPRPHHIPRP	-0.88
RRIRCRPPRLPRPRPRPHLIPRP	0.282
RRIRCRPPRLPRPRPRPHNLPRP	-0.592
RRIRCRPPRLPRPRPRPHQCPRP	-0.24
RRIRCRPPRLPRPRPRPHQYPRP	-0.05
RRIRCRPPRLPRPRPRPHSKPRP	-0.438
RRIRCRPPRLPRPRPRPHTQPRP	-0.55
RRIRCRPPRLPRPRPRPHWAPRP	0.244
RRIRCRPPRLPRPRPRPHWEPRP	-0.132
RRIRCRPPRLPRPRPRPHWTPRP	-0.226
RRIRCRPPRLPRPRPRPIAIPRP	-0.443
RRIRCRPPRLPRPRPRPICLPRP	-0.127
RRIRCRPPRLPRPRPRPICQPRP	-0.0542
RRIRCRPPRLPRPRPRPICRPRP	-0.0824
RRIRCRPPRLPRPRPRPICSPRP	0.0973
RRIRCRPPRLPRPRPRPIDIPRP	0.0768
RRIRCRPPRLPRPRPRPIFAPRP	0.373
RRIRCRPPRLPRPRPRPIFFPRP	-0.0793
RRIRCRPPRLPRPRPRPIFIPRP	-0.339

Sequence	shrunken log2 fold change
RRIRCRPPRLPRPRPRPIFNPRP	-0.542
RRIRCRPPRLPRPRPRPIHAPRP	-0.0479
RRIRCRPPRLPRPRPRPIHDPRP	-0.264
RRIRCRPPRLPRPRPRPIHEPRP	-0.115
RRIRCRPPRLPRPRPRPIHHPRP	-0.481
RRIRCRPPRLPRPRPRPIHQPRP	-0.304
RRIRCRPPRLPRPRPRPIILPRP	-0.354
RRIRCRPPRLPRPRPRPIIRPRP	-0.18
RRIRCRPPRLPRPRPRPIMFPRP	-0.388
RRIRCRPPRLPRPRPRPIMKPRP	-0.649
RRIRCRPPRLPRPRPRPIMTPRP	-0.00708
RRIRCRPPRLPRPRPRPINWPRP	-0.407
RRIRCRPPRLPRPRPRPIPPPRP	0.265
RRIRCRPPRLPRPRPRPIRKPRP	-0.126
RRIRCRPPRLPRPRPRPISAPRP	-0.142
RRIRCRPPRLPRPRPRPIVCPRP	-0.272
RRIRCRPPRLPRPRPRPIVKPRP	0.0118
RRIRCRPPRLPRPRPRPIWIPRP	-0.291
RRIRCRPPRLPRPRPRPIWPPRP	0.415
RRIRCRPPRLPRPRPRPIYFPRP	-0.131
RRIRCRPPRLPRPRPRPIYGPRP	-0.203
RRIRCRPPRLPRPRPRPKAGPRP	0.251
RRIRCRPPRLPRPRPRPKAPPRP	0.337
RRIRCRPPRLPRPRPRPKDIPRP	-0.0796
RRIRCRPPRLPRPRPRPKEFPRP	0.0238

Sequence	shrunken log2 fold change
RRIRCRPPRLPRPRPRPKFAPRP	0.0822
RRIRCRPPRLPRPRPRPKGKPRP	0.328
RRIRCRPPRLPRPRPRPKGPPRP	0.348
RRIRCRPPRLPRPRPRPKHSPRP	-0.401
RRIRCRPPRLPRPRPRPKIDPRP	-0.0573
RRIRCRPPRLPRPRPRPKIEPRP	-0.0736
RRIRCRPPRLPRPRPRPKKMPRP	0.169
RRIRCRPPRLPRPRPRPKKTPRP	-0.142
RRIRCRPPRLPRPRPRPKLVPRP	-0.152
RRIRCRPPRLPRPRPRPKMGPRP	0.0549
RRIRCRPPRLPRPRPRPKNSPRP	-0.159
RRIRCRPPRLPRPRPRPKPKPRP	0.407
RRIRCRPPRLPRPRPRPKQIPRP	0.0104
RRIRCRPPRLPRPRPRPKQTPRP	-0.0521
RRIRCRPPRLPRPRPRPKRMPRP	0.118
RRIRCRPPRLPRPRPRPKSEPRP	-0.0877
RRIRCRPPRLPRPRPRPKSGPRP	0.017
RRIRCRPPRLPRPRPRPKSLPRP	-0.191
RRIRCRPPRLPRPRPRPKVLPRP	0.0115
RRIRCRPPRLPRPRPRPKWKPRP	0.329
RRIRCRPPRLPRPRPRPKWSPRP	0.0876
RRIRCRPPRLPRPRPRPLAPPRP	0.268
RRIRCRPPRLPRPRPRPLCEPRP	-0.0345
RRIRCRPPRLPRPRPRPLDQPRP	0.221
RRIRCRPPRLPRPRPRPLEDPRP	0.0306

Sequence	shrunken log2 fold change
RRIRCRPPRLPRPRPRPLFHPRP	-0.429
RRIRCRPPRLPRPRPRPLGQPRP	0.16
RRIRCRPPRLPRPRPRPLGTPRP	-0.583
RRIRCRPPRLPRPRPRPLGWPRP	0.506
RRIRCRPPRLPRPRPRPLHLPRP	-0.302
RRIRCRPPRLPRPRPRPLIDPRP	-0.301
RRIRCRPPRLPRPRPRPLMRPRP	0.715
RRIRCRPPRLPRPRPRPLMWPRP	-0.185
RRIRCRPPRLPRPRPRPLNAPRP	-0.255
RRIRCRPPRLPRPRPRPLNQPRP	-0.317
RRIRCRPPRLPRPRPRPLPIPRP	-0.0776
RRIRCRPPRLPRPRPRPLQLPRP	-0.546
RRIRCRPPRLPRPRPRPLQTPRP	0.443
RRIRCRPPRLPRPRPRPLRDPRP	0.948
RRIRCRPPRLPRPRPRPLRVPRP	0.0985
RRIRCRPPRLPRPRPRPLSFPRP	-0.398
RRIRCRPPRLPRPRPRPLVTPRP	-0.195
RRIRCRPPRLPRPRPRPLWCPRP	-0.208
RRIRCRPPRLPRPRPRPLWNPRP	-0.208
RRIRCRPPRLPRPRPRPLYCPRP	-0.593
RRIRCRPPRLPRPRPRPLYEPRP	-0.43
RRIRCRPPRLPRPRPRPLYIPRP	-0.882
RRIRCRPPRLPRPRPRPMAMPRP	0.106
RRIRCRPPRLPRPRPRPMCEPRP	-0.0476
RRIRCRPPRLPRPRPRPMCFPRP	0.00335

Sequence	shrunken log2 fold change
RRIRCRPPRLPRPRPRPMCIPRP	-0.146
RRIRCRPPRLPRPRPRPMCYPRP	-0.244
RRIRCRPPRLPRPRPRPMDVPRP	-0.00136
RRIRCRPPRLPRPRPRPMEDPRP	-0.0146
RRIRCRPPRLPRPRPRPMEPPRP	0.0774
RRIRCRPPRLPRPRPRPMEWPRP	0.0244
RRIRCRPPRLPRPRPRPMFKPRP	-0.536
RRIRCRPPRLPRPRPRPMGKPRP	0.0173
RRIRCRPPRLPRPRPRPMHLPRP	0.0527
RRIRCRPPRLPRPRPRPMIQPRP	-0.417
RRIRCRPPRLPRPRPRPMITPRP	-0.0256
RRIRCRPPRLPRPRPRPMKEPRP	-0.18
RRIRCRPPRLPRPRPRPMMDPRP	-0.117
RRIRCRPPRLPRPRPRPMMEPRP	-0.105
RRIRCRPPRLPRPRPRPMMNPRP	-0.278
RRIRCRPPRLPRPRPRPMNCPRP	-0.0537
RRIRCRPPRLPRPRPRPMPNPRP	-0.368
RRIRCRPPRLPRPRPRPMPQPRP	0.202
RRIRCRPPRLPRPRPRPMSGPRP	0.198
RRIRCRPPRLPRPRPRPMTMPRP	-0.27
RRIRCRPPRLPRPRPRPMVMPRP	0.0583
RRIRCRPPRLPRPRPRPMVNPRP	-0.0109
RRIRCRPPRLPRPRPRPMWMPRP	0.174
RRIRCRPPRLPRPRPRPMYCPRP	-1.66
RRIRCRPPRLPRPRPRPMYDPRP	-0.0891

Sequence	shrunken log2 fold change
RRIRCRPPRLPRPRPRPMYKPRP	-0.471
RRIRCRPPRLPRPRPRPMYMPRP	-0.143
RRIRCRPPRLPRPRPRPMYYPRP	-0.472
RRIRCRPPRLPRPRPRPNCKPRP	-0.138
RRIRCRPPRLPRPRPRPNDEPRP	-0.0298
RRIRCRPPRLPRPRPRPNDVPRP	-0.215
RRIRCRPPRLPRPRPRPNFAPRP	-0.098
RRIRCRPPRLPRPRPRPNFLPRP	-0.265
RRIRCRPPRLPRPRPRPNGEPRP	-0.0109
RRIRCRPPRLPRPRPRPNHHPRP	-0.604
RRIRCRPPRLPRPRPRPNHQPRP	-0.421
RRIRCRPPRLPRPRPRPNICPRP	-0.488
RRIRCRPPRLPRPRPRPNLRPRP	-0.315
RRIRCRPPRLPRPRPRPNMDPRP	-0.431
RRIRCRPPRLPRPRPRPNMRPRP	0.357
RRIRCRPPRLPRPRPRPNPMPRP	-0.246
RRIRCRPPRLPRPRPRPNREPRP	-0.134
RRIRCRPPRLPRPRPRPNSGPRP	-0.224
RRIRCRPPRLPRPRPRPNSLPRP	-0.0801
RRIRCRPPRLPRPRPRPNTEPRP	-0.161
RRIRCRPPRLPRPRPRPNTGPRP	-0.657
RRIRCRPPRLPRPRPRPNVYPRP	-0.53
RRIRCRPPRLPRPRPRPNYQPRP	-0.212
RRIRCRPPRLPRPRPRPPAAPRP	1.78
RRIRCRPPRLPRPRPRPPADPRP	0.95
